According to patent US20250352661A1 (MYTHIC THERAPEUTICS, published 2025):

Target: T1, Human LRRC15 Protein, His Tag (Acro Biosystems) (human, UniProt Q8TF66 22-538, limits assumed)
T1 construct: not shown: His tag
T1 sequence (looked up): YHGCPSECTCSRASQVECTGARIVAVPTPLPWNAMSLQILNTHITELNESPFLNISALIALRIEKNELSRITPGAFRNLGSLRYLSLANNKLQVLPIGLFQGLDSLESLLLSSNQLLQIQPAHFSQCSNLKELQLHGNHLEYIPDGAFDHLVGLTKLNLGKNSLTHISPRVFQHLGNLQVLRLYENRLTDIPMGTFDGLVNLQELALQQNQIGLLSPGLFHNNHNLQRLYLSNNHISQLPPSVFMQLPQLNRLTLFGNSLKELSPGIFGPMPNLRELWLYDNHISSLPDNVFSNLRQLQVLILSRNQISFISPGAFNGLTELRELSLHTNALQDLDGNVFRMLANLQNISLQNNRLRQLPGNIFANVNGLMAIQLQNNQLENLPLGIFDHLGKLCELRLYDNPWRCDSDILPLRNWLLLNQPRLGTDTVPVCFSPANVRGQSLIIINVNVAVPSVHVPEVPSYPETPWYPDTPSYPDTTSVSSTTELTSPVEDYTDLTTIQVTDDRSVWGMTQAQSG
Assay: BLI; dissociation pH 7.4 black, pH 5.4 grey [D00016 FIG. 3B]

binding result | Binder
binds | MYT7926 (antibody, V domains shown, tested as culture supernatant; also called 24D9 VL Q24H) VH: QQQLVESGGGLVKPGASLTLTCKASGFSFSGSYWICWVRQAPGKGLEWIGCINGGSLDITYYASWAKGRFTISKASSTTVTLQKTSLTAADTATYFCASDTSYTAYGNFYFNLWGPGTLVTVSS VL: AQVLTQTASPVSAAVGGTVTINCHSSQSVLNNNWLAWYQQKPGQPPKLLIYDASSLASGVPSRFKGSGSGTQFTLTISDLESDDAATYYCQGEFSCGSADCNAFGGGTEVVVKG
binds | MYT7928 (antibody, V domains shown, tested as culture supernatant; also called 24D9 VL S26H) VH: QQQLVESGGGLVKPGASLTLTCKASGFSFSGSYWICWVRQAPGKGLEWIGCINGGSLDITYYASWAKGRFTISKASSTTVTLQKTSLTAADTATYFCASDTSYTAYGNFYFNLWGPGTLVTVSS VL: AQVLTQTASPVSAAVGGTVTINCQSHQSVLNNNWLAWYQQKPGQPPKLLIYDASSLASGVPSRFKGSGSGTQFTLTISDLESDDAATYYCQGEFSCGSADCNAFGGGTEVVVKG
binds | MYT7929 (antibody, V domains shown, tested as culture supernatant; also called 24D9 VL Q27H) VH: QQQLVESGGGLVKPGASLTLTCKASGFSFSGSYWICWVRQAPGKGLEWIGCINGGSLDITYYASWAKGRFTISKASSTTVTLQKTSLTAADTATYFCASDTSYTAYGNFYFNLWGPGTLVTVSS VL: AQVLTQTASPVSAAVGGTVTINCQSSHSVLNNNWLAWYQQKPGQPPKLLIYDASSLASGVPSRFKGSGSGTQFTLTISDLESDDAATYYCQGEFSCGSADCNAFGGGTEVVVKG
no binding (tested: 50 nM LRRC15) | MYT7931 (antibody, V domains shown, tested as culture supernatant; also called 24D9 VL V29H) VH: QQQLVESGGGLVKPGASLTLTCKASGFSFSGSYWICWVRQAPGKGLEWIGCINGGSLDITYYASWAKGRFTISKASSTTVTLQKTSLTAADTATYFCASDTSYTAYGNFYFNLWGPGTLVTVSS VL: AQVLTQTASPVSAAVGGTVTINCQSSQSHLNNNWLAWYQQKPGQPPKLLIYDASSLASGVPSRFKGSGSGTQFTLTISDLESDDAATYYCQGEFSCGSADCNAFGGGTEVVVKG
binds | MYT7927 (antibody, V domains shown, tested as culture supernatant; also called 24D9 VL S25H) VH: QQQLVESGGGLVKPGASLTLTCKASGFSFSGSYWICWVRQAPGKGLEWIGCINGGSLDITYYASWAKGRFTISKASSTTVTLQKTSLTAADTATYFCASDTSYTAYGNFYFNLWGPGTLVTVSS VL: AQVLTQTASPVSAAVGGTVTINCQHSQSVLNNNWLAWYQQKPGQPPKLLIYDASSLASGVPSRFKGSGSGTQFTLTISDLESDDAATYYCQGEFSCGSADCNAFGGGTEVVVKG
binds | MYT7930 (antibody, V domains shown, tested as culture supernatant; also called 24D9 VL S28H) VH: QQQLVESGGGLVKPGASLTLTCKASGFSFSGSYWICWVRQAPGKGLEWIGCINGGSLDITYYASWAKGRFTISKASSTTVTLQKTSLTAADTATYFCASDTSYTAYGNFYFNLWGPGTLVTVSS VL: AQVLTQTASPVSAAVGGTVTINCQSSQHVLNNNWLAWYQQKPGQPPKLLIYDASSLASGVPSRFKGSGSGTQFTLTISDLESDDAATYYCQGEFSCGSADCNAFGGGTEVVVKG

Target: T2, Human LRRC15 Protein, His Tag (Acro Biosystems) (human, UniProt Q8TF66 22-538, limits assumed)
T2 construct: Bought protein with His tag
T2 sequence (looked up): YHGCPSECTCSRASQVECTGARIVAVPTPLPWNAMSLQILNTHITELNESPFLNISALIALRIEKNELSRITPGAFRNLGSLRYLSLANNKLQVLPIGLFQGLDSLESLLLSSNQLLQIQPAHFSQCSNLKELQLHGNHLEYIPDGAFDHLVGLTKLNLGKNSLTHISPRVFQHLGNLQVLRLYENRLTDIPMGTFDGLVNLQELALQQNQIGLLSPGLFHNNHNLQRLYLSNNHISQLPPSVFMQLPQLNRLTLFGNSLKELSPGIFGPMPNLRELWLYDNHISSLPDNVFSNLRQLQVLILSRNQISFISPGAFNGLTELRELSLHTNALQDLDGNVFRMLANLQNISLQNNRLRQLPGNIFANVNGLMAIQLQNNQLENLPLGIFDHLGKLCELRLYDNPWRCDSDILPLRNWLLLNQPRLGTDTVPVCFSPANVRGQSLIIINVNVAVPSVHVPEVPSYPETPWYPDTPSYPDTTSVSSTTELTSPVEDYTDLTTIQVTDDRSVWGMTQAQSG
Assay: BLI; dissociation pH 7.4 black, pH 5.4 grey [1/2); D00013 FIG. 2B (1/2]

binding result | Binder
binds | MYT7899 (antibody, V domains shown, rabbit 24D9 VH D58H; chimeric, human constant regions) VH: QQQLVESGGGLVKPGASLTLTCKASGFSFSGSYWICWVRQAPGKGLEWIGCINGGSLHITYYASWAKGRFTISKASSTTVTLQKTSLTAADTATYFCASDTSYTAYGNFYFNLWGPGTLVTVSS VL: AQVLTQTASPVSAAVGGTVTINCQSSQSVLNNNWLAWYQQKPGQPPKLLIYDASSLASGVPSRFKGSGSGTQFTLTISDLESDDAATYYCQGEFSCGSADCNAFGGGTEVVVKG
binds | MYT7903 (antibody, V domains shown, rabbit 24D9 VH Y62H; chimeric, human constant regions) VH: QQQLVESGGGLVKPGASLTLTCKASGFSFSGSYWICWVRQAPGKGLEWIGCINGGSLDITYHASWAKGRFTISKASSTTVTLQKTSLTAADTATYFCASDTSYTAYGNFYFNLWGPGTLVTVSS VL: AQVLTQTASPVSAAVGGTVTINCQSSQSVLNNNWLAWYQQKPGQPPKLLIYDASSLASGVPSRFKGSGSGTQFTLTISDLESDDAATYYCQGEFSCGSADCNAFGGGTEVVVKG
binds | MYT7901 (antibody, V domains shown, rabbit 24D9 VH T60H; chimeric, human constant regions) VH: QQQLVESGGGLVKPGASLTLTCKASGFSFSGSYWICWVRQAPGKGLEWIGCINGGSLDIHYYASWAKGRFTISKASSTTVTLQKTSLTAADTATYFCASDTSYTAYGNFYFNLWGPGTLVTVSS VL: AQVLTQTASPVSAAVGGTVTINCQSSQSVLNNNWLAWYQQKPGQPPKLLIYDASSLASGVPSRFKGSGSGTQFTLTISDLESDDAATYYCQGEFSCGSADCNAFGGGTEVVVKG
no binding (tested: 50 nM LRRC15) | MYT7911 (antibody, V domains shown, rabbit 24D9 VH S99H; chimeric, human constant regions) VH: QQQLVESGGGLVKPGASLTLTCKASGFSFSGSYWICWVRQAPGKGLEWIGCINGGSLDITYYASWAKGRFTISKASSTTVTLQKTSLTAADTATYFCAHDTSYTAYGNFYFNLWGPGTLVTVSS VL: AQVLTQTASPVSAAVGGTVTINCQSSQSVLNNNWLAWYQQKPGQPPKLLIYDASSLASGVPSRFKGSGSGTQFTLTISDLESDDAATYYCQGEFSCGSADCNAFGGGTEVVVKG
binds | MYT7907 (antibody, V domains shown, rabbit 24D9 VH A66H; chimeric, human constant regions) VH: QQQLVESGGGLVKPGASLTLTCKASGFSFSGSYWICWVRQAPGKGLEWIGCINGGSLDITYYASWHKGRFTISKASSTTVTLQKTSLTAADTATYFCASDTSYTAYGNFYFNLWGPGTLVTVSS VL: AQVLTQTASPVSAAVGGTVTINCQSSQSVLNNNWLAWYQQKPGQPPKLLIYDASSLASGVPSRFKGSGSGTQFTLTISDLESDDAATYYCQGEFSCGSADCNAFGGGTEVVVKG
binds | MYT7904 (antibody, V domains shown, rabbit 24D9 VH A63H; chimeric, human constant regions) VH: QQQLVESGGGLVKPGASLTLTCKASGFSFSGSYWICWVRQAPGKGLEWIGCINGGSLDITYYHSWAKGRFTISKASSTTVTLQKTSLTAADTATYFCASDTSYTAYGNFYFNLWGPGTLVTVSS VL: AQVLTQTASPVSAAVGGTVTINCQSSQSVLNNNWLAWYQQKPGQPPKLLIYDASSLASGVPSRFKGSGSGTQFTLTISDLESDDAATYYCQGEFSCGSADCNAFGGGTEVVVKG
binds | MYT7910 (antibody, V domains shown, rabbit 24D9 VH A98H; chimeric, human constant regions) VH: QQQLVESGGGLVKPGASLTLTCKASGFSFSGSYWICWVRQAPGKGLEWIGCINGGSLDITYYASWAKGRFTISKASSTTVTLQKTSLTAADTATYFCHSDTSYTAYGNFYFNLWGPGTLVTVSS VL: AQVLTQTASPVSAAVGGTVTINCQSSQSVLNNNWLAWYQQKPGQPPKLLIYDASSLASGVPSRFKGSGSGTQFTLTISDLESDDAATYYCQGEFSCGSADCNAFGGGTEVVVKG
binds | MYT7908 (antibody, V domains shown, rabbit 24D9 VH K67H; chimeric, human constant regions) VH: QQQLVESGGGLVKPGASLTLTCKASGFSFSGSYWICWVRQAPGKGLEWIGCINGGSLDITYYASWAHGRFTISKASSTTVTLQKTSLTAADTATYFCASDTSYTAYGNFYFNLWGPGTLVTVSS VL: AQVLTQTASPVSAAVGGTVTINCQSSQSVLNNNWLAWYQQKPGQPPKLLIYDASSLASGVPSRFKGSGSGTQFTLTISDLESDDAATYYCQGEFSCGSADCNAFGGGTEVVVKG
binds | MYT7902 (antibody, V domains shown, rabbit 24D9 VH Y61H; chimeric, human constant regions) VH: QQQLVESGGGLVKPGASLTLTCKASGFSFSGSYWICWVRQAPGKGLEWIGCINGGSLDITHYASWAKGRFTISKASSTTVTLQKTSLTAADTATYFCASDTSYTAYGNFYFNLWGPGTLVTVSS VL: AQVLTQTASPVSAAVGGTVTINCQSSQSVLNNNWLAWYQQKPGQPPKLLIYDASSLASGVPSRFKGSGSGTQFTLTISDLESDDAATYYCQGEFSCGSADCNAFGGGTEVVVKG
binds | MYT7909 (antibody, V domains shown, rabbit 24D9 VH G68H; chimeric, human constant regions) VH: QQQLVESGGGLVKPGASLTLTCKASGFSFSGSYWICWVRQAPGKGLEWIGCINGGSLDITYYASWAKHRFTISKASSTTVTLQKTSLTAADTATYFCASDTSYTAYGNFYFNLWGPGTLVTVSS VL: AQVLTQTASPVSAAVGGTVTINCQSSQSVLNNNWLAWYQQKPGQPPKLLIYDASSLASGVPSRFKGSGSGTQFTLTISDLESDDAATYYCQGEFSCGSADCNAFGGGTEVVVKG
binds | MYT7900 (antibody, V domains shown, rabbit 24D9 VH I59H; chimeric, human constant regions) VH: QQQLVESGGGLVKPGASLTLTCKASGFSFSGSYWICWVRQAPGKGLEWIGCINGGSLDHTYYASWAKGRFTISKASSTTVTLQKTSLTAADTATYFCASDTSYTAYGNFYFNLWGPGTLVTVSS VL: AQVLTQTASPVSAAVGGTVTINCQSSQSVLNNNWLAWYQQKPGQPPKLLIYDASSLASGVPSRFKGSGSGTQFTLTISDLESDDAATYYCQGEFSCGSADCNAFGGGTEVVVKG
binds | MYT7905 (antibody, V domains shown, rabbit 24D9 VH S64H; chimeric, human constant regions) VH: QQQLVESGGGLVKPGASLTLTCKASGFSFSGSYWICWVRQAPGKGLEWIGCINGGSLDITYYAHWAKGRFTISKASSTTVTLQKTSLTAADTATYFCASDTSYTAYGNFYFNLWGPGTLVTVSS VL: AQVLTQTASPVSAAVGGTVTINCQSSQSVLNNNWLAWYQQKPGQPPKLLIYDASSLASGVPSRFKGSGSGTQFTLTISDLESDDAATYYCQGEFSCGSADCNAFGGGTEVVVKG
binds | MYT7906 (antibody, V domains shown, rabbit 24D9 VH W65H; chimeric, human constant regions) VH: QQQLVESGGGLVKPGASLTLTCKASGFSFSGSYWICWVRQAPGKGLEWIGCINGGSLDITYYASHAKGRFTISKASSTTVTLQKTSLTAADTATYFCASDTSYTAYGNFYFNLWGPGTLVTVSS VL: AQVLTQTASPVSAAVGGTVTINCQSSQSVLNNNWLAWYQQKPGQPPKLLIYDASSLASGVPSRFKGSGSGTQFTLTISDLESDDAATYYCQGEFSCGSADCNAFGGGTEVVVKG
